Measurements published in paper doi:10.1101/2024.02.22.581535.

Target: Bio-His-FIKK13 (P. falciparum)
Test: SPR

Kd: 17 nM
Binder: YPLRFLSKYHCG [FIKK13_4]
